From the RNAGym collection of RNA variant scans (doi:10.1073/pnas.2313332121)
Variants at the floor of the assay were thinned out.

B1: TPR 5TU (parent)
chain: GGAUCUUCUCGAUCUAACAAAAAAGACAAAUCUGCCACAAAGCUUGAGAGCAUCUUCGGAUGCAGAGGCGGCAGCCUUCGGUGGCGCGAUAGCGCCAACGUUCUCAACUAUGACACGCAAAACGCGUGCUCCGUUGAAUGGAGUUUAUCAUG

Variants of: B1
Experiment: polymerase ribozyme fitness, log enrichment relative to wild type (log ratio); higher = more active; in vitro selection for triplet polymerase activity
Method in brief: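 Mutant libraries of both subunits of a heterodimeric triplet polymerase ribozyme were PCR-built, transcribed, and selected once in triplicate, with frozen incubation at −7 °C and capture of gel-excised extended constructs on streptavidin beads before RT-PCR. Illumina sequencing of input and output libraries was filtered to genotypes with ≥10 input reads and ≥1 read per output. Fitness is the logarithm of genotype enrichment over wild-type enrichment, using inverse-variance-weighted replicate averages. The logarithm is base 2.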

Variant	polymerase ribozyme fitness (log ratio)
A49C G74C C87A C125U	≤ -4.2
A49U A73G G81C C85U	-2.64
A49C U53A G81C A98U G100A C103A	≤ -4.2
A49G A52C C95U C96A C99A	≤ -4.2
A49U A52C	-0.692
A49C G88U C96G A115U U148G	≤ -4.2
A49G G70A G140U	≤ -4.2
A49U C93U	-1.38
A49C G84C U90G C103G A115U	≤ -4.2
A49G	-0.331
A49U	-0.673
A49C U101G G141U	-1.78
A49C C79G G94C	≤ -4.2
A49G C63U G81C U104G	-2.29
A49C G92U U127C	≤ -4.2
A49U C57G U61A A73G G88C A97C U135A G152A	≤ -4.2
A49C U82A G86A G126A	≤ -4.2
A49G A52G G68U C69G G100C	≤ -4.2
A49G G84A G152A	-2.8
A49C G50C G67C C72G G84A C108A A142G A147U	≤ -4.2
A49C U55A	≤ -4.2
A49G A142C	-1.59
A49C G50U G71C G94C G136A U144C	≤ -4.2
A49G A113U	-2.42

Variant	polymerase ribozyme fitness (log ratio)
A49C G62U A107U G152A	≤ -4.2
A49C G68C G81C C93A G126A	≤ -4.2
A49G C75U C96G	-2.68
A49U C116G C149U	-4.18
A49C G62A G94C A122U C132G A142C	≤ -4.2
A49G G84U U145G	-3.09
A49U A60C	-3.47
A49C G94C U104G	≤ -4.2
A49U G58A U102G A122U	-0.217
A49G A52C G59A G84A G94U C103U	≤ -4.2
A49G A106G	-1.08
A49C U53A G86U A115G	≤ -4.2
A49G C51U C95G A137G U144A	≤ -4.2
A49U A91G	≤ -4.2
A49G C125G	-0.947
A49G G71A C93G	≤ -4.2
A49U A110U G117U	≤ -4.2
A49G G92U	0.21
A49C G86A C129A C132U U148A G152U	≤ -4.2
A49G G58A	-0.296
A49C U55A G143C	≤ -4.2
A49C G86U C96G C123U U146G	≤ -4.2
A49G G74C U101G G112C A122U U127A A138C	≤ -4.2
A49C C103G A110C	≤ -4.2

Variant	polymerase ribozyme fitness (log ratio)
A49C G62C U139C	≤ -4.2
A49C U53A C54A C87U U102C	≤ -4.2
A49U G50A G84A C95G U146C	-1.2
A49C G81U G84U C125G G141C A150U	≤ -4.2
A49C G59U U77C G81C U109G G141C	≤ -4.2
A49C C79U U151G	≤ -4.2
A49C U77G G94C	≤ -4.2
A49G G133C	-2.21
A49C G67A G92U A138C	≤ -4.2
A49U A73U C75A	≤ -4.2
A49G C85G C93U	≤ -4.2
A49C G58C A66G C93G A107U A120U	≤ -4.2
A49C G84C	≤ -4.2
A49C C96A	-3.04
A49U A107C	≤ -4.2
A49G C95U	-0.995
A49C C93A C103G G117U C149G	≤ -4.2
A49G G92C A115U	-3.24
A49G G62U C63U C96A A122U	-3.19
A49U A97U A106G C116U	-2.93
A49U C54G U55A G59A A60G U90G A106U G124C	≤ -4.2
A49C U53A G88C G141C	≤ -4.2
A49U C85G	-2.96
A49C G143A	-4.14

Variant	polymerase ribozyme fitness (log ratio)
A49G G50U C51U C96U A98C G126A U134G U146A	-3.95
A49G C93A U134A U146G	≤ -4.2
A49C U53A A106G	≤ -4.2
A49G G50A G140U	-3.96
A49C U55A A66U C72A C85U	≤ -4.2
A49C U61G G62A G81C	-4.13
A49G U55A A73G	-3.1
A49G U55G C57U A60G C75G C76U U90A U102C U134G G140C	≤ -4.2
A49C C93A	≤ -4.2
A49C C76A	≤ -4.2
A49U A89U C132U	-2.65
A49U C54G C72A U82G A110U	≤ -4.2
A49U A142C	-1.43
A49C G68C C85G A115G A119G G141U A147C	≤ -4.2
A49U C54U	-1.34
A49C G70A C75G C93G A97C C116G C118G	≤ -4.2
A49G A60U	-1.62
A49U G58C	-0.846
A49G C87A A89C U90A C129U	≤ -4.2
A49U G59A A115U A119C	-3.36
A49G C114U U144A	-4.06
A49C U56G G65U A73C C87A	≤ -4.2
A49G G126U	-0.157
A49C U61G C99G G124A	≤ -4.2

Variant	polymerase ribozyme fitness (log ratio)
A49U C69G C75A U90G	≤ -4.2
A49U G62C C123U	-2.38
A49C G68C G94U A97U C114G G126A U127G	≤ -4.2
A49C G50C A91U C96G	≤ -4.2
A49C G71C U101G A137U A150U	≤ -4.2
A49U A66G G80C G84U U102G	≤ -4.2
A49G U139A	-4.08
A49C C87A C132A	≤ -4.2
A49C C95U C96G	-3.85
A49G A97G	-1.11
A49G C51G	-2.66
A49G G94A U127C	-3.23
A49C C103A	-3.96
A49U C96G	-0.972
A49C U56A G88U A122C C125U	≤ -4.2
A49C C87U	-4.01
A49U C103G	≤ -4.2
A49G C57U C75A U146G	≤ -4.2
A49C U77G A121C U148A	≤ -4.2
A49G A73G	-0.67
A49G U55A	-0.644
A49G G83U	-1.22
A49C G141C	-4.14
A49C G141A	-3.79

Variant	polymerase ribozyme fitness (log ratio)
A49C U56A A60U	≤ -4.2
A49C C79U C85U C132A U134A	≤ -4.2
A49C C85U	-3.49
A49G U56G G83C	-2.85
A49G G84A	-0.52
A49C G50C C76U A91U A97U U111C G143C A150U	≤ -4.2
A49U C57A G81A A98C U148G	≤ -4.2
A49G G50C C95U A98G U145G	-2.77
A49G G50A U55A U146C	-1.98
A49C C99G	≤ -4.2
A49G G50A U53A U77G C79U G92U U109G A122U U134C U135C C149A A150U	≤ -4.2
A49C G65C G88U C96A	-4.03
A49C G68A C96U A98C C108G	≤ -4.2
A49C G68A	≤ -4.2
A49G G50A C54A A66G U82A C108U C125A	≤ -4.2
A49G C105U A113G A115C A147U	≤ -4.2
A49U G58C A66G G80U C85A C87A C108G G128U C149U	≤ -4.2
A49G C54A C118A	-3.25
A49G G81C A91G A98U	-2.95
A49U G50C G65C A97U U101G C129G G143U	≤ -4.2
A49C G68A U102G A107G	≤ -4.2
A49C U109G G152U	-4.18
A49G C75G U77A U82C C93G C125U U134C U146C A147U	≤ -4.2
A49C G50C U53A C79A A137U	≤ -4.2

Variant	polymerase ribozyme fitness (log ratio)
A49G U101C C114G U134C	-3.89
A49G C93G U102G A106G	≤ -4.2
A49G C96G	-1.61
A49G C96U	-0.233
A49C G81A G112A C114U G128A G133A	≤ -4.2
A49G G140A	-3.77
A49G G140C	-3.88
A49G A60G C85U	-0.602
A49G A91G	-4.05
A49C G59A A60G A106G	≤ -4.2
A49G G50A C95U U145C	-2.54
A49G G59C G67A G70A U77C U82C A89G C95G	≤ -4.2
A49C C79A C108U C123A	≤ -4.2
A49G A52G U55A G67A A107U G133C A137G U139C	≤ -4.2
A49G C76U A89C C96A	-2.23
A49U A119C U127A U134A	≤ -4.2
A49C G94C	-4.16
A49G G83A U144G A147U	-1.87
A49U C85G A115C	-3.64
A49C G50C G81C A110U	≤ -4.2
A49G A122U G124U	-0.811
A49G U55A C79U G92U C95A G140A	≤ -4.2
A49G A52C	-1.27
